Results from US20200317768A1 (published 2020).

T1: cynomolgus monkey FcγRIIa2 extracellular domain, His-tagged (cynomolgus monkey)
T1 construct: also called cyno FcgRIIa2; cynoFcγRIIa2; not shown: His-tag added to the C-terminus
T1 chain: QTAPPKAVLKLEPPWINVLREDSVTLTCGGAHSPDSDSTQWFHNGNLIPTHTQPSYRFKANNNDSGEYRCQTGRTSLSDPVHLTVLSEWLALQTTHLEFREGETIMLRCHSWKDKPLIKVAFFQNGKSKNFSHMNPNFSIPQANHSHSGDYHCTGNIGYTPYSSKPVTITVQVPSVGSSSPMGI

T2: cynomolgus monkey FcγRIIa1 extracellular domain, His-tagged (cynomolgus monkey)
T2 construct: also called cyno FcgRIIa1; cynoFcγRIIa1; not shown: His-tag added to the C-terminus
T2 chain: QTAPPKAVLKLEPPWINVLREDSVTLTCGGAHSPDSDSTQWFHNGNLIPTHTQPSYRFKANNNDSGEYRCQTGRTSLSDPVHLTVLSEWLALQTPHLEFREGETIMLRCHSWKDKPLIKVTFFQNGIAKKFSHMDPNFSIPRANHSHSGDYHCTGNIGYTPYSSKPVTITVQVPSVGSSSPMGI


Legend:
Assay in all cases: SPR; KD of SG1 divided by KD of the variant;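 note: relative to parent M103205H795-SG1 carrying the SG1 human heavy chain constant region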
[1] = biological target: T1, cynomolgus monkey FcγRIIa2 …
[2] = biological target: T2, cynomolgus monkey FcγRIIa1 …
[3] = biological target: T3, cynomolgus monkey FcγRIIIaS extracellular domain, His-tagged (cynomolgus monkey, UniProt A3RFZ7 21-206 (rhesus entry))
T3 construct: also called cyno FcgRIIIaS; cynoFcγRIIIaS; not shown: His-tag added to the C-terminus
T3 sequence (A3RFZ7 21-206): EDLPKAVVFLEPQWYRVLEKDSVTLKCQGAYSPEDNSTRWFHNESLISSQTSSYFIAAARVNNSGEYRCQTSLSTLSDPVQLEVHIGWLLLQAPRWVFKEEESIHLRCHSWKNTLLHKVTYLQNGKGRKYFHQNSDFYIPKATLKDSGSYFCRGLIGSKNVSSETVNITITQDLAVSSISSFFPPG

Row | Binder | KD fold (SG1 = 1) [1] [fold] | KD fold (SG1 = 1) [2] [fold] | KD fold (SG1 = 1) [3] [fold]
1 | MS1032LO06-SG1 (M103205H795-SG1/M103202L889-SK1) (antibody, human IgG1, kappa, Anti-latent myostatin antibody; Parent of the Fc variants; copies: 2 + 2) heavy: not shown light: DIVMTQSPATLSLSPGERATLSCTSSQSVYHANWLSWFQQKPGQPPKLLIYWASTLAYGVPSRFSGSGSGTDFTLTISSLQPEDAATYYCAGGYGGGRYAFGQGTKVEIKRTVAAPSVFIFPPSDEQLKSGTASVVCLLNNFYPREAKVQWKVDNALQSGNSQESVTEQDSKDSTYSLSSTLTLSKADYEKHKVYACEVTHQGLSSPVTKSFNRGEC | 1 | 1 | 1
2 | M103205H795-MY263/M103202L889-SK1 (antibody, human IgG1, kappa, copies: 2 + 2) heavy: QVTLKESGPVLVKPTETLTLTCTVSGIDLSHDDISWVRQAPGKGLEWVGIISYAGSTYYASWAKGRLTISKDTSKNQVVLTMTNMDPVDTATYYCARGVPAYSHGGDLWGQGTLVTVSSASTKGPSVFPLAPSSKSTSGGTAALGCLVKDYFPEPVTVSWNSGALTSGVHTFPAVLQSSGLYSLSSVVTVPSSSLGTQTYICNVNHKPSNTKVDKKVEPKSCDKTHTCPPCPAPELLQGPSVFLFPPKPKDTLMISRTPEVTCVVVDVSDEDPEVKFNWYVDGVEVHNAKTKPREEQYNSTYRVVSVLTVLHQDWLNGKEYKCKVSNKALPKPIEKTISKAKGQPREPQVYTLPPSREEMTKNQVSLTCLVKGFYPSDIAVEWESNGQPENNYKTTPPVLDSDGSFFLYSKLTVDKSRWQQGNVFSCSVMHEALHNHYTQKSLSLSP light: DIVMTQSPATLSLSPGERATLSCTSSQSVYHANWLSWFQQKPGQPPKLLIYWASTLAYGVPSRFSGSGSGTDFTLTISSLQPEDAATYYCAGGYGGGRYAFGQGTKVEIKRTVAAPSVFIFPPSDEQLKSGTASVVCLLNNFYPREAKVQWKVDNALQSGNSQESVTEQDSKDSTYSLSSTLTLSKADYEKHKVYACEVTHQGLSSPVTKSFNRGEC | 1.7 | 1 | 0.46
3 | M103205H795-MY262/M103202L889-SK1 (antibody, human IgG1, kappa, copies: 2 + 2) heavy: QVTLKESGPVLVKPTETLTLTCTVSGIDLSHDDISWVRQAPGKGLEWVGIISYAGSTYYASWAKGRLTISKDTSKNQVVLTMTNMDPVDTATYYCARGVPAYSHGGDLWGQGTLVTVSSASTKGPSVFPLAPSSKSTSGGTAALGCLVKDYFPEPVTVSWNSGALTSGVHTFPAVLQSSGLYSLSSVVTVPSSSLGTQTYICNVNHKPSNTKVDKKVEPKSCDKTHTCPPCPAPELLVGPSVFLFPPKPKDTLMISRTPEVTCVVVDVSDEDPEVKFNWYVDGVEVHNAKTKPREEQYNSTYRVVSVLTVLHQDWLNGKEYKCKVSNKALPKPIEKTISKAKGQPREPQVYTLPPSREEMTKNQVSLTCLVKGFYPSDIAVEWESNGQPENNYKTTPPVLDSDGSFFLYSKLTVDKSRWQQGNVFSCSVMHEALHNHYTQKSLSLSP light: DIVMTQSPATLSLSPGERATLSCTSSQSVYHANWLSWFQQKPGQPPKLLIYWASTLAYGVPSRFSGSGSGTDFTLTISSLQPEDAATYYCAGGYGGGRYAFGQGTKVEIKRTVAAPSVFIFPPSDEQLKSGTASVVCLLNNFYPREAKVQWKVDNALQSGNSQESVTEQDSKDSTYSLSSTLTLSKADYEKHKVYACEVTHQGLSSPVTKSFNRGEC | 3 | 1.7 | 0.13
4 | M103205H795-MY264/M103202L889-SK1 (antibody, human IgG1, kappa, copies: 2 + 2) heavy: QVTLKESGPVLVKPTETLTLTCTVSGIDLSHDDISWVRQAPGKGLEWVGIISYAGSTYYASWAKGRLTISKDTSKNQVVLTMTNMDPVDTATYYCARGVPAYSHGGDLWGQGTLVTVSSASTKGPSVFPLAPSSKSTSGGTAALGCLVKDYFPEPVTVSWNSGALTSGVHTFPAVLQSSGLYSLSSVVTVPSSSLGTQTYICNVNHKPSNTKVDKKVEPKSCDKTHTCPPCPAPELLLGPSVFLFPPKPKDTLMISRTPEVTCVVVDVSDEDPEVKFNWYVDGVEVHNAKTKPREEQYNSTYRVVSVLTVLHQDWLNGKEYKCKVSNKALPKPIEKTISKAKGQPREPQVYTLPPSREEMTKNQVSLTCLVKGFYPSDIAVEWESNGQPENNYKTTPPVLDSDGSFFLYSKLTVDKSRWQQGNVFSCSVMHEALHNHYTQKSLSLSP light: DIVMTQSPATLSLSPGERATLSCTSSQSVYHANWLSWFQQKPGQPPKLLIYWASTLAYGVPSRFSGSGSGTDFTLTISSLQPEDAATYYCAGGYGGGRYAFGQGTKVEIKRTVAAPSVFIFPPSDEQLKSGTASVVCLLNNFYPREAKVQWKVDNALQSGNSQESVTEQDSKDSTYSLSSTLTLSKADYEKHKVYACEVTHQGLSSPVTKSFNRGEC | 0.9 | 0.6 | 0.1
5 | M103205H795-MY260/M103202L889-SK1 (antibody, human IgG1, kappa, copies: 2 + 2) heavy: QVTLKESGPVLVKPTETLTLTCTVSGIDLSHDDISWVRQAPGKGLEWVGIISYAGSTYYASWAKGRLTISKDTSKNQVVLTMTNMDPVDTATYYCARGVPAYSHGGDLWGQGTLVTVSSASTKGPSVFPLAPSSKSTSGGTAALGCLVKDYFPEPVTVSWNSGALTSGVHTFPAVLQSSGLYSLSSVVTVPSSSLGTQTYICNVNHKPSNTKVDKKVEPKSCDKTHTCPPCPAPELLMGPSVFLFPPKPKDTLMISRTPEVTCVVVDVSDEDPEVKFNWYVDGVEVHNAKTKPREEQYNSTYRVVSVLTVLHQDWLNGKEYKCKVSNKALPKPIEKTISKAKGQPREPQVYTLPPSREEMTKNQVSLTCLVKGFYPSDIAVEWESNGQPENNYKTTPPVLDSDGSFFLYSKLTVDKSRWQQGNVFSCSVMHEALHNHYTQKSLSLSP light: DIVMTQSPATLSLSPGERATLSCTSSQSVYHANWLSWFQQKPGQPPKLLIYWASTLAYGVPSRFSGSGSGTDFTLTISSLQPEDAATYYCAGGYGGGRYAFGQGTKVEIKRTVAAPSVFIFPPSDEQLKSGTASVVCLLNNFYPREAKVQWKVDNALQSGNSQESVTEQDSKDSTYSLSSTLTLSKADYEKHKVYACEVTHQGLSSPVTKSFNRGEC | 1.4 | 0.7 | 0.55
6 | M103205H795-MY261/M103202L889-SK1 (antibody, human IgG1, kappa, copies: 2 + 2) heavy: QVTLKESGPVLVKPTETLTLTCTVSGIDLSHDDISWVRQAPGKGLEWVGIISYAGSTYYASWAKGRLTISKDTSKNQVVLTMTNMDPVDTATYYCARGVPAYSHGGDLWGQGTLVTVSSASTKGPSVFPLAPSSKSTSGGTAALGCLVKDYFPEPVTVSWNSGALTSGVHTFPAVLQSSGLYSLSSVVTVPSSSLGTQTYICNVNHKPSNTKVDKKVEPKSCDKTHTCPPCPAPELLHGPSVFLFPPKPKDTLMISRTPEVTCVVVDVSDEDPEVKFNWYVDGVEVHNAKTKPREEQYNSTYRVVSVLTVLHQDWLNGKEYKCKVSNKALPKPIEKTISKAKGQPREPQVYTLPPSREEMTKNQVSLTCLVKGFYPSDIAVEWESNGQPENNYKTTPPVLDSDGSFFLYSKLTVDKSRWQQGNVFSCSVMHEALHNHYTQKSLSLSP light: DIVMTQSPATLSLSPGERATLSCTSSQSVYHANWLSWFQQKPGQPPKLLIYWASTLAYGVPSRFSGSGSGTDFTLTISSLQPEDAATYYCAGGYGGGRYAFGQGTKVEIKRTVAAPSVFIFPPSDEQLKSGTASVVCLLNNFYPREAKVQWKVDNALQSGNSQESVTEQDSKDSTYSLSSTLTLSKADYEKHKVYACEVTHQGLSSPVTKSFNRGEC | 1.3 | 0.9 | 0.15
7 | M103205H795-MY265/M103202L889-SK1 (antibody, human IgG1, kappa, copies: 2 + 2) heavy: QVTLKESGPVLVKPTETLTLTCTVSGIDLSHDDISWVRQAPGKGLEWVGIISYAGSTYYASWAKGRLTISKDTSKNQVVLTMTNMDPVDTATYYCARGVPAYSHGGDLWGQGTLVTVSSASTKGPSVFPLAPSSKSTSGGTAALGCLVKDYFPEPVTVSWNSGALTSGVHTFPAVLQSSGLYSLSSVVTVPSSSLGTQTYICNVNHKPSNTKVDKKVEPKSCDKTHTCPPCPAPELLTGPSVFLFPPKPKDTLMISRTPEVTCVVVDVSDEDPEVKFNWYVDGVEVHNAKTKPREEQYNSTYRVVSVLTVLHQDWLNGKEYKCKVSNKALPKPIEKTISKAKGQPREPQVYTLPPSREEMTKNQVSLTCLVKGFYPSDIAVEWESNGQPENNYKTTPPVLDSDGSFFLYSKLTVDKSRWQQGNVFSCSVMHEALHNHYTQKSLSLSP light: DIVMTQSPATLSLSPGERATLSCTSSQSVYHANWLSWFQQKPGQPPKLLIYWASTLAYGVPSRFSGSGSGTDFTLTISSLQPEDAATYYCAGGYGGGRYAFGQGTKVEIKRTVAAPSVFIFPPSDEQLKSGTASVVCLLNNFYPREAKVQWKVDNALQSGNSQESVTEQDSKDSTYSLSSTLTLSKADYEKHKVYACEVTHQGLSSPVTKSFNRGEC | 2.7 | 1.5 | 0.18
8 | M103205H795-MY201/M103202L889-SK1 (antibody, human IgG1, kappa, Fc variant G236N/H268D/A330K (EU numbering) of SG1; also called MS1032LO06-MY201; copies: 2 + 2) heavy: QVTLKESGPVLVKPTETLTLTCTVSGIDLSHDDISWVRQAPGKGLEWVGIISYAGSTYYASWAKGRLTISKDTSKNQVVLTMTNMDPVDTATYYCARGVPAYSHGGDLWGQGTLVTVSSASTKGPSVFPLAPSSKSTSGGTAALGCLVKDYFPEPVTVSWNSGALTSGVHTFPAVLQSSGLYSLSSVVTVPSSSLGTQTYICNVNHKPSNTKVDKKVEPKSCDKTHTCPPCPAPELLNGPSVFLFPPKPKDTLMISRTPEVTCVVVDVSDEDPEVKFNWYVDGVEVHNAKTKPREEQYNSTYRVVSVLTVLHQDWLNGKEYKCKVSNKALPKPIEKTISKAKGQPREPQVYTLPPSREEMTKNQVSLTCLVKGFYPSDIAVEWESNGQPENNYKTTPPVLDSDGSFFLYSKLTVDKSRWQQGNVFSCSVMHEALHNHYTQKSLSLSP light: DIVMTQSPATLSLSPGERATLSCTSSQSVYHANWLSWFQQKPGQPPKLLIYWASTLAYGVPSRFSGSGSGTDFTLTISSLQPEDAATYYCAGGYGGGRYAFGQGTKVEIKRTVAAPSVFIFPPSDEQLKSGTASVVCLLNNFYPREAKVQWKVDNALQSGNSQESVTEQDSKDSTYSLSSTLTLSKADYEKHKVYACEVTHQGLSSPVTKSFNRGEC | 3.6 | 2.3 | 0.06
